Test results published in CN111333732A (UNIV CHINA PHARMA, dated 2020).

T1: BCMA-Fc蛋白 (human, UniProt Q02223 1-54)
T1 construct: Captured on a CM5 chip through anti-human Fc antibody for SPR; also called BCMA抗原; not shown: Fc part, captured by anti-human Fc antibody
T1 sequence (looked up): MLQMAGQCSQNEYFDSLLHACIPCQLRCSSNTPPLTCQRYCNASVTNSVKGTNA

T2: NKG2D-Fc蛋白 (UniProt P26718 78-216, limits assumed)
T2 construct: Captured on a CM5 chip through anti-human Fc antibody for SPR; not shown: Fc part, captured by anti-human Fc antibody
T2 sequence (looked up): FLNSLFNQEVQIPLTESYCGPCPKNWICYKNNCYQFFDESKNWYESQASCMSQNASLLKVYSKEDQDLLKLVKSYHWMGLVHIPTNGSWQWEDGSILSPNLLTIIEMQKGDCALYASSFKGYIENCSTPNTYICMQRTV


How the values were obtained:
BCMA-Fc蛋白 [1] = target: T1, BCMA-Fc蛋白; experiment: SPR, Biacore X100, BCMA-Fc captured by anti-human Fc on CM5, 2A9 as analyte
BCMA-Fc蛋白 [2] = target: T1, BCMA-Fc蛋白; experiment: SPR, Biacore X100, BCMA-Fc captured by anti-human Fc on CM5, 2A9-MICA as analyte
NKG2D-Fc蛋白 = target: T2, NKG2D-Fc蛋白; experiment: SPR, Biacore X100, NKG2D-Fc captured by anti-human Fc on CM5, 2A9-MICA as analyte

| Binder | Kd (BCMA-Fc蛋白 [1]) [nM] | Kd (BCMA-Fc蛋白 [2]) [nM] | Kd (NKG2D-Fc蛋白) [nM] |
| --- | --- | --- | --- |
| 抗人BCMA单链抗体2A9 (scFv, Parental scFv from phage display; also called rG7S) scFv: ASMAEVQLQQSGAELVKPGASVKLSCTASGFNIKDTYMHWVKQRPEQGLEWIGRIDPANGNTKYDPKFQGKATITADTSSNTAYLQLSSLTSEDTAVYYCARWVYWGQGTTLTVSTGGGGSDVVMTQSPSSMYASLGERVTITCKASQDINSYLSWFQQKPGKSPKTLIYRANRLVDGVPSRFSGSGSGQDYSLTISSLEYEDMGIYYCLQYDEFPYTFGGGTKLEIKR | 34.6 | – | – |
| 双特异性抗体2A9-MICA (anti-human BCMA scFv 2A9 fused to human MICA extracellular regions 1-3) (bispecific antibody, also called 抗体融合蛋白2A9-MICA; rG7S-MICA) MAEVQLQQSGAELVKPGASVKLSCTASGFNIKDTYMHWVKQRPEQGLEWIGRIDPANGNTKYDPKFQGKATITADTSSNTAYLQLSSLTSEDTAVYYCARWVYWGQGTTLTVSTGGGGSDVVMTQSPSSMYASLGERVTITCKASQDINSYLSWFQQKPGKSPKTLIYRANRLVDGVPSRFSGSGSGQDYSLTISSLEYEDMGIYYCLQYDEFPYTFGGGTKLEIKRGSGGGGSEPHSLRYNLTVLSWDGSVQSGFLAEVHLDGQPFLRYDRQKCRAKPQGQWAEDVLGNKTWDRETRDLTGNGKDLRMTLAHIKDQKEGLHSLQEIRVCEIHEDNSTRSSQHFYYDGELFLSQNLETEEWTVPQSSRAQTLAMNVRNFLKEDAMKTKTHYHAMHADCLQELRRYLESGVVLRRTVPPMVNVTRSEASEGNITVTCRASSFYPRNIILTWRQDGVSLSHDTQQWGDVLPDGNGTYQTWVATRICRGEEQRFTCYMEHSGNHSTHPVPSGKVLVLQSHW | – | 76 | 3470 |
